According to patent US20180119150A1:

Target: FLT3 (human) (UniProt P36888)
Experiment: cell-based or functional assay

Sequence of UniProt P36888 (P36888 27-993): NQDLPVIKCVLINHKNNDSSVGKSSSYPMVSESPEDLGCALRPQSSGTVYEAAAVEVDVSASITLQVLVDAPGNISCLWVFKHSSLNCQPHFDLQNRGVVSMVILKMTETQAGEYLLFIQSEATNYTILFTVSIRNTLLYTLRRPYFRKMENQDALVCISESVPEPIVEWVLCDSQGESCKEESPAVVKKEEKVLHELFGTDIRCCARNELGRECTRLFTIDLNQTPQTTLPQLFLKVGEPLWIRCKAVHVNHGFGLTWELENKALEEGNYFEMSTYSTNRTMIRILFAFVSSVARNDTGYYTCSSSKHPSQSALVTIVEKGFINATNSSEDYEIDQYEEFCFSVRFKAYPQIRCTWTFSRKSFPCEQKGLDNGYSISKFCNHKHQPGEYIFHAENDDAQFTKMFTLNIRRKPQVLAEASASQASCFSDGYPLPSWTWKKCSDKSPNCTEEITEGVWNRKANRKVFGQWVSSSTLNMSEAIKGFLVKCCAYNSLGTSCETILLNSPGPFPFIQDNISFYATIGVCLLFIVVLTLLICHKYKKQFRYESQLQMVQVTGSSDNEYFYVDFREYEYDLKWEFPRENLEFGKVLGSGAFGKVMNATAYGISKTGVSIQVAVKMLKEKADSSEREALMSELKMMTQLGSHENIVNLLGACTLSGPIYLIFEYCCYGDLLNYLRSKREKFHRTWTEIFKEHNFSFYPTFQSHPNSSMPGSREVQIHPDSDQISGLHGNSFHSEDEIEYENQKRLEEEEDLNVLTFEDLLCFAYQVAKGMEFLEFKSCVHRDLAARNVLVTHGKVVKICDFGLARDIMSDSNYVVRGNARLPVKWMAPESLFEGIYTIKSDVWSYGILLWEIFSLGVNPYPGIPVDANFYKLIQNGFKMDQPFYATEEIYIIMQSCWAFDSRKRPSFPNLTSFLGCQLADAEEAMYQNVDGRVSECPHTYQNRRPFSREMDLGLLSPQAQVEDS

| one-hour uptake ratio [%] | Substance |
| --- | --- |
| 23.6 | FLT3L-conjugated Generation 7 (G7) PAMAM (G7-FLT3L) dendrimers (from UniProt P49771 27-181) (ligand) |
| 5.9 | G7-H2B control nanoparticles |
